Tests used:
[1] = target: minicollagen peptide H-Gly-Pro-Arg-Gly-(Pro-Hyp-Gly)12-NH2; assay: SPR; minicollagen peptide amine-coupled on a CM5 chip (BIACORE); collagen anchors as analyte, eight concentrations 100 nM-300 uM; 10 mM sodium HEPES pH 7.4, 150 mM NaCl, 1 mM CaCl2, 0.005% Tween-20; 20 ul/min; 25 C; equilibrium responses fitted; apparent KD
[2] = target: minicollagen peptide H-Gly-Pro-Arg-Gly-(Pro-Hyp-Gly)12-NH2; assay: SPR; […] (BIACORE); […]; 10 mM sodium HEPES pH 7.4, 150 mM NaCl, 1 mM CaCl2, 0.005% Tween-20; 20 ul/min; 25 C; […]

Row | Substance | Kd [1] [µM] | Kd [2] [µM]
1 | CBD-CBD (s3a-s3b) of Clostridium histolyticum class I collagenase ColG (domain or fragment) | 44.6 | –
2 | PKD-CBD (s2b-s3) of Clostridium histolyticum class II collagenase ColH (domain or fragment) | – | 445
3 | CBD (s3b) of Clostridium histolyticum class I collagenase ColG (domain or fragment) | 45.4 | –
4 | CBD (s3) of Clostridium histolyticum class II collagenase ColH (domain or fragment) | – | 752

From paper PMC5889866
